Assay results published in IntAct's records for PubMed 19322201.

Biological target: elav1_human ELAVL1 (UniProt Q15717)

- effect of a mutation on the interaction: disrupting interaction
Substance: Polyubiquitin-C (Homo sapiens) (from UniProt P0CG48) K48R
